The source of these data is patent publication US20140294898A1 (published 2014).

Like-named read-outs stand apart in the source and are kept apart here.

The target in assay [1] is T1, hPDL1(19-239)-TVMV-His (human, UniProt Q9NZQ7 19-239).
T1 construct: The construct name says 19-239, the running text says amino acids 18-239; Expressed in HEK293T cells; also called PD-L1-His; PD-L1-TVMV-His
The experiment in a line: HTRF competition, PD-1-Ig (20 nM) binding to human PD-L1-His (10 nM). How it is done: (§1) All binding studies were performed in an HTRF assay buffer consisting of dPBS supplemented with 0.1% (w/v) bovine serum albumin and 0.05% (v/v) Tween-20. […] PD-L1 fusion proteins from either human, cynomologous macaques, or mouse were used. HTRF detection was achieved using europium crypate-labeled anti-Ig monoclonal antibody (1 nM final) and allophycocyanin (APC) labeled anti-His monoclonal antibody (20 nM final). Antibodies were diluted in HTRF detection buffer and 5 μl was dispensed on top of binding reaction. The reaction was allowed to equilibrate for 30 minutes and signal (665 nm/620 nm ratio) was obtained using an EnVision fluorometer. […]
HTRF Experiments were performed essentially as outlined supra. Variant macrocyclic peptides were created as outlined herein.

The target in assay [2] is T1, hPDL1(19-239)-TVMV-His. Described as above. The protocol: as §1
HTRF experiments were performed essentially as outlined supra. Variant macrocyclic peptides were created as outlined herein.
This is another data set of the same source.

T1 sequence (Q9NZQ7 other isoform, or with tags, fused parts or gaps limits assumed): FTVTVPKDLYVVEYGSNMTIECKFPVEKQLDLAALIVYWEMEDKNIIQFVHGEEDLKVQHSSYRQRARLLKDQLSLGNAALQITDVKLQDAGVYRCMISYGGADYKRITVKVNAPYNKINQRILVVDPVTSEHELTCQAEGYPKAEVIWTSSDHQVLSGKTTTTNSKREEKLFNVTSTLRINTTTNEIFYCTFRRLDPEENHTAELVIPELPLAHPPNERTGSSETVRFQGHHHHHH

B1: Compound No. 68 (peptide)
peptide: FANPHLGWSWSXRCG
HELM: PEPTIDE1{[O=C(C[*:3])[*:2]].F.[meA].N.P.H.L.[Sar].W.S.W.S.[CCCC[C@@H](C(=O)[*:2])N(C)[*:1]].R.C.G.[am]}$PEPTIDE1,PEPTIDE1,1:R3-15:R3$$$V2.0
SMILES: CCCC[C@H]1C(=O)N[C@@H](CCCNC(=N)N)C(=O)N[C@H](C(=O)NCC(N)=O)CSCC(=O)N[C@@H](Cc2ccccc2)C(=O)N(C)[C@@H](C)C(=O)N[C@@H](CC(N)=O)C(=O)N2CCC[C@H]2C(=O)N[C@@H](Cc2c[nH]cn2)C(=O)N[C@@H](CC(C)C)C(=O)N(C)CC(=O)N[C@@H](Cc2c[nH]c3ccccc23)C(=O)N[C@@H](CO)C(=O)N[C@@H](Cc2c[nH]c3ccccc23)C(=O)N[C@@H](CO)C(=O)N1C
notes: macrocyclic peptide cyclized via the ClAc moiety with the downstream cysteine
Molecule B1 registered an IC50 in the assay with hPDL1(19-239)-TVMV-His [1] of 2060 nM.

B2: Compound No. 71 (peptide)
peptide: FFXGDVFYGWYLCG
HELM: PEPTIDE1{[O=C(C[*:3])[*:2]].F.[meF].[CCCC[C@@H](C(=O)[*:2])N(C)[*:1]].[Sar].D.V.[meF].Y.[Sar].W.Y.L.C.G.[am]}$PEPTIDE1,PEPTIDE1,1:R3-14:R3$$$V2.0
SMILES: CCCC[C@H]1C(=O)N(C)CC(=O)N[C@@H](CC(=O)O)C(=O)N[C@@H](C(C)C)C(=O)N(C)[C@@H](Cc2ccccc2)C(=O)N[C@@H](Cc2ccc(O)cc2)C(=O)N(C)CC(=O)N[C@@H](Cc2c[nH]c3ccccc23)C(=O)N[C@@H](Cc2ccc(O)cc2)C(=O)N[C@@H](CC(C)C)C(=O)N[C@H](C(=O)NCC(N)=O)CSCC(=O)N[C@@H](Cc2ccccc2)C(=O)N(C)[C@@H](Cc2ccccc2)C(=O)N1C
notes: macrocyclic peptide cyclized via the ClAc moiety with the downstream cysteine; parent of the Formula II series
For B2, the IC50 with hPDL1(19-239)-TVMV-His [2] was 7 nM.

B3: Compound No. 72 (peptide)
peptide: AFXGDVFYGWYLCG
HELM: PEPTIDE1{[O=C(C[*:3])[*:2]].A.[meF].[CCCC[C@@H](C(=O)[*:2])N(C)[*:1]].[Sar].D.V.[meF].Y.[Sar].W.Y.L.C.G.[am]}$PEPTIDE1,PEPTIDE1,1:R3-14:R3$$$V2.0
SMILES: CCCC[C@H]1C(=O)N(C)CC(=O)N[C@@H](CC(=O)O)C(=O)N[C@@H](C(C)C)C(=O)N(C)[C@@H](Cc2ccccc2)C(=O)N[C@@H](Cc2ccc(O)cc2)C(=O)N(C)CC(=O)N[C@@H](Cc2c[nH]c3ccccc23)C(=O)N[C@@H](Cc2ccc(O)cc2)C(=O)N[C@@H](CC(C)C)C(=O)N[C@H](C(=O)NCC(N)=O)CSCC(=O)N[C@@H](C)C(=O)N(C)[C@@H](Cc2ccccc2)C(=O)N1C
notes: macrocyclic peptide cyclized via the ClAc moiety with the downstream cysteine; variant of Compound No. 71 (Ala at 1)
In the assay with hPDL1(19-239)-TVMV-His [2], B3 yielded an IC50 of 4230 nM.

B4: Compound No. 83 (peptide)
peptide: FFXGDVFAGWYLCG
HELM: PEPTIDE1{[O=C(C[*:3])[*:2]].F.[meF].[CCCC[C@@H](C(=O)[*:2])N(C)[*:1]].[Sar].D.V.[meF].A.[Sar].W.Y.L.C.G.[am]}$PEPTIDE1,PEPTIDE1,1:R3-14:R3$$$V2.0
SMILES: CCCC[C@H]1C(=O)N(C)CC(=O)N[C@@H](CC(=O)O)C(=O)N[C@@H](C(C)C)C(=O)N(C)[C@@H](Cc2ccccc2)C(=O)N[C@@H](C)C(=O)N(C)CC(=O)N[C@@H](Cc2c[nH]c3ccccc23)C(=O)N[C@@H](Cc2ccc(O)cc2)C(=O)N[C@@H](CC(C)C)C(=O)N[C@H](C(=O)NCC(N)=O)CSCC(=O)N[C@@H](Cc2ccccc2)C(=O)N(C)[C@@H](Cc2ccccc2)C(=O)N1C
notes: macrocyclic peptide cyclized via the ClAc moiety with the downstream cysteine; variant of Compound No. 71 (Ala at 8)
In the assay with hPDL1(19-239)-TVMV-His [2], B4 gave an IC50 of 35 nM.

B5: Compound No. 84 (peptide)
peptide: FFXGDVFYAWYLCG
HELM: PEPTIDE1{[O=C(C[*:3])[*:2]].F.[meF].[CCCC[C@@H](C(=O)[*:2])N(C)[*:1]].[Sar].D.V.[meF].Y.[meA].W.Y.L.C.G.[am]}$PEPTIDE1,PEPTIDE1,1:R3-14:R3$$$V2.0
SMILES: CCCC[C@H]1C(=O)N(C)CC(=O)N[C@@H](CC(=O)O)C(=O)N[C@@H](C(C)C)C(=O)N(C)[C@@H](Cc2ccccc2)C(=O)N[C@@H](Cc2ccc(O)cc2)C(=O)N(C)[C@@H](C)C(=O)N[C@@H](Cc2c[nH]c3ccccc23)C(=O)N[C@@H](Cc2ccc(O)cc2)C(=O)N[C@@H](CC(C)C)C(=O)N[C@H](C(=O)NCC(N)=O)CSCC(=O)N[C@@H](Cc2ccccc2)C(=O)N(C)[C@@H](Cc2ccccc2)C(=O)N1C
notes: macrocyclic peptide cyclized via the ClAc moiety with the downstream cysteine; variant of Compound No. 71 (mAla at 9)
B5 had an IC50 with hPDL1(19-239)-TVMV-His [2] of 42 nM.

B6: Compound No. 77 (peptide)
peptide: FFXADVFYGWYLCG
HELM: PEPTIDE1{[O=C(C[*:3])[*:2]].F.[meF].[CCCC[C@@H](C(=O)[*:2])N(C)[*:1]].[meA].D.V.[meF].Y.[Sar].W.Y.L.C.G.[am]}$PEPTIDE1,PEPTIDE1,1:R3-14:R3$$$V2.0
SMILES: CCCC[C@H]1C(=O)N(C)[C@@H](C)C(=O)N[C@@H](CC(=O)O)C(=O)N[C@@H](C(C)C)C(=O)N(C)[C@@H](Cc2ccccc2)C(=O)N[C@@H](Cc2ccc(O)cc2)C(=O)N(C)CC(=O)N[C@@H](Cc2c[nH]c3ccccc23)C(=O)N[C@@H](Cc2ccc(O)cc2)C(=O)N[C@@H](CC(C)C)C(=O)N[C@H](C(=O)NCC(N)=O)CSCC(=O)N[C@@H](Cc2ccccc2)C(=O)N(C)[C@@H](Cc2ccccc2)C(=O)N1C
notes: macrocyclic peptide cyclized via the ClAc moiety with the downstream cysteine; variant of Compound No. 71 (mAla at 4)
In the assay with hPDL1(19-239)-TVMV-His [2], B6 returned an IC50 of 24 nM.

B7: Compound No. 80 (peptide)
peptide: FFXGDAFYGWYLCG
HELM: PEPTIDE1{[O=C(C[*:3])[*:2]].F.[meF].[CCCC[C@@H](C(=O)[*:2])N(C)[*:1]].[Sar].D.A.[meF].Y.[Sar].W.Y.L.C.G.[am]}$PEPTIDE1,PEPTIDE1,1:R3-14:R3$$$V2.0
SMILES: CCCC[C@H]1C(=O)N(C)CC(=O)N[C@@H](CC(=O)O)C(=O)N[C@@H](C)C(=O)N(C)[C@@H](Cc2ccccc2)C(=O)N[C@@H](Cc2ccc(O)cc2)C(=O)N(C)CC(=O)N[C@@H](Cc2c[nH]c3ccccc23)C(=O)N[C@@H](Cc2ccc(O)cc2)C(=O)N[C@@H](CC(C)C)C(=O)N[C@H](C(=O)NCC(N)=O)CSCC(=O)N[C@@H](Cc2ccccc2)C(=O)N(C)[C@@H](Cc2ccccc2)C(=O)N1C
notes: macrocyclic peptide cyclized via the ClAc moiety with the downstream cysteine; variant of Compound No. 71 (Ala at 6)
Take B7: the IC50 with hPDL1(19-239)-TVMV-His [2] was 264 nM.

B8: Compound No. 67 (peptide)
peptide: FANPHLGWSWFXRCG
HELM: PEPTIDE1{[O=C(C[*:3])[*:2]].F.[meA].N.P.H.L.[Sar].W.S.W.[meF].[CCCC[C@@H](C(=O)[*:2])N(C)[*:1]].R.C.G.[am]}$PEPTIDE1,PEPTIDE1,1:R3-15:R3$$$V2.0
SMILES: CCCC[C@H]1C(=O)N[C@@H](CCCNC(=N)N)C(=O)N[C@H](C(=O)NCC(N)=O)CSCC(=O)N[C@@H](Cc2ccccc2)C(=O)N(C)[C@@H](C)C(=O)N[C@@H](CC(N)=O)C(=O)N2CCC[C@H]2C(=O)N[C@@H](Cc2c[nH]cn2)C(=O)N[C@@H](CC(C)C)C(=O)N(C)CC(=O)N[C@@H](Cc2c[nH]c3ccccc23)C(=O)N[C@@H](CO)C(=O)N[C@@H](Cc2c[nH]c3ccccc23)C(=O)N(C)[C@@H](Cc2ccccc2)C(=O)N1C
notes: as for B1
In turn, B8 returned an IC50 with hPDL1(19-239)-TVMV-His [1] of 108 nM.

B9: Compound No. 69 (peptide)
peptide: FANPHLGWSWFXRCG
HELM: PEPTIDE1{[O=C(C[*:3])[*:2]].F.[meA].N.P.H.L.[Sar].W.S.W.F.[CCCC[C@@H](C(=O)[*:2])N(C)[*:1]].R.C.G.[am]}$PEPTIDE1,PEPTIDE1,1:R3-15:R3$$$V2.0
SMILES: CCCC[C@H]1C(=O)N[C@@H](CCCNC(=N)N)C(=O)N[C@H](C(=O)NCC(N)=O)CSCC(=O)N[C@@H](Cc2ccccc2)C(=O)N(C)[C@@H](C)C(=O)N[C@@H](CC(N)=O)C(=O)N2CCC[C@H]2C(=O)N[C@@H](Cc2c[nH]cn2)C(=O)N[C@@H](CC(C)C)C(=O)N(C)CC(=O)N[C@@H](Cc2c[nH]c3ccccc23)C(=O)N[C@@H](CO)C(=O)N[C@@H](Cc2c[nH]c3ccccc23)C(=O)N[C@@H](Cc2ccccc2)C(=O)N1C
notes: as for B1
As for B9, the IC50 with hPDL1(19-239)-TVMV-His [1] was 77 nM.

A word on the IC50: it is the concentration that gives 50% inhibition.
